In paper PMC7240051:

Target: BnaA10.ABF2-cYFP (Brassica napus)

| dual-luciferase assay in tobacco leaves: activity of pBnaC9.RAB18-LUC with BnaC7.RGA expressed together with BnaA10.ABF2, against the reporter only (BnaA10.ABF2 alone: 3.7 times) [times] | dual-luciferase assay in tobacco leaves: activity of pBnaC9.RAB18-LUC with BnaA6.RGA expressed together with BnaA10.ABF2, against the reporter only (BnaA10.ABF2 alone: 3.7 times) [times] | Substance |
| --- | --- | --- |
| 11.8 | – | BnaC7.RGA-nYFP (full length) (natural protein) |
| – | 6.5 | BnaA6.RGA-nYFP (full length) (natural protein) |
